In PMC7005851:

Key:
[1] = target: T1, *^#H chain of ΔLd-6C407 IgG*^#H*^#L (WT VH, all C-region Cys to Ser); test: sandwich ELISA (anti-human Cκ capture); settings: chain shown with the change; lysates of HEK293 transfectants; empty vector est. 0.15; parent: est. 1.9; read off a plot
T1 chain: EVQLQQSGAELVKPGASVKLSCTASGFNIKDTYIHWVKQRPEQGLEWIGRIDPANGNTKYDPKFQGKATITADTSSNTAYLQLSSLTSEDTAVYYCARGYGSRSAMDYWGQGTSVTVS

[2] = target: T2, *^#H chain of ΔLd-2C281 IgG*^#H*^#L (WT VH, all C-region Cys to Ser); test: sandwich ELISA (anti-human Cκ capture); settings: chain shown with the change; lysates of HEK293 transfectants; empty vector est. 0.15; parent: est. 1.4; read off a plot
T2 chain: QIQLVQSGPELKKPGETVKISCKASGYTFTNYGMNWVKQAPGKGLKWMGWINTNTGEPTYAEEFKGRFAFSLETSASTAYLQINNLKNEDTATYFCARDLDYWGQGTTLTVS

[3] = target: *H chain of ΔLd-3D8 IgG1 variants ΔLd-*HL and ΔLd-*H*L (hinge Cys11 and Cys14 to Ser); test: sandwich ELISA (Protein L capture, AP-conjugated anti-human IgG/Fc detection); settings: chain shown with the change; no heat; lysate of ΔLd-3D8 *H*L transfectants; empty vector est. 0.20; parent: est. 2.2; read off a plot
[4] = target: *^#H chain of ΔLd-3D8 IgG*^#H*^#L (WT VH, all C-region Cys to Ser); test: sandwich ELISA (anti-human Cκ capture); settings: chain shown with the change; lysates of HEK293 transfectants; empty vector est. 0.15; parent: est. 1.7; read off a plot

B1: m6 (L) and m5 (H), WT ΔLd-6C407 IgG *#H*#L: all C-region Cys of inter- and intrachain disulfide bonds to Ser (residue numbers not printed) (protein)
chain: DIVLTQSPASLAVSLGQRATISCRASKSVSTSGYSYMLWYQQKPGQPPKLLIYLASNLESGVPARFSGSGSGTDFTLNIHPVEEEDAATYYCQHSRELPWTFGGGTKLEIK
- response (Abs at 405 nm) [1]: 0.15

B2: m4 (L) and m3 (H), WT ΔLd-2C281 IgG *#H*#L: all C-region Cys of inter- and intrachain disulfide bonds to Ser (residue numbers not printed) (protein)
chain: DVVMTQTPLSLPVSLGDQASISCRSSQSLVHSNGNTYFHWFLQKPGQSPKLLIYKVSNRFSGVPDRFSGSGSGTDFTLKISRVEAEDLGVYFCSQSTHVPYTFGGGTKLEIK
- response (Abs at 405 nm) [2]: 0.15

B3: m2 (L) and m1 (H), ΔLd-HL H:Cys11Ser (hinge); H:Cys14Ser (hinge); L:Cys107Ser (Cκ) (protein)
chain: DIVMSQSPSSLAVSAGEKVTMSCKSSQSLFNSRTRKNYLAWYQQKPGQSPKLLIYWASTRESGVPDRFTGSGPGTDFTLTISSVQAEDLAVYYCKQSYYHMYTFGSGTKLEIK
- response (Abs at 405 nm) [3]: 2.3

B4: m2 (L) and m1 (H), WT ΔLd-3D8 IgG *#H*#L: all C-region Cys of inter- and intrachain disulfide bonds to Ser (residue numbers not printed) (protein)
chain: B3 chain
- response (Abs at 405 nm) [4]: 0.15
